Results as given in patent publication US20220125947A1 (published 2022).
Changes are numbered by the printed parent chain.

B1: VG9B96 (antibody, human IgG1, kappa, V domains shown)
VH: EVQLVQSGAEVKKPGSSVKVSCKASGGTFSNYAISWVRLAPGQGLEWMGGIIPIFSAGTYAQRFQGRVTITADKSTSTAYMELNSLRSEDTAVYYCSSNSGTYYDYYYGMDVWGQGTMVTVSS
VL: DIVMTQSPLSSHVTLGQPASISCRSSQSLVHSDGNTYLSWLQQRPGQPPRLLIYKIFNRLSGVPDRFSGSGAGTDFTLKISRVEAEDVGVYYCMQAKQFPLTFGGGTKVEIKR
notes: IgG1, kappa; specificity column: g/d constant
B2: VG9B77 (antibody, human IgG1, kappa, V domains shown)
VH: EVQLVESGAEVMKPGSSVKVSCKASGGTFSSYAISWVRQAPEQGLEWMGGIIPFFGTADYAQKFQGRVTITADKSTNTAYMELTSLRSEDTAVYYCATATVTTDYYYGMDVWGQGTMVTVSS
VL: B1 VL with D1E, S10F, H12P, K55E, F57S, L60F, S61T, K97R
notes: as for B1
B3: VG9B447 (antibody, human IgG1, lambda)
heavy: not shown
light: SYELTQPASVSGSPGQSITISCTGTSSDVGGYNYVSWYQQHPGKAPKLMIYEVSNRPSGVSNRFSGSKSGNTASLTISGLQAEDEADYYCSSYTSTSVVFGGGTKLTVLGQPKAAPSVTLFPPSSEELQANKATLVCLISDFYPGAVTVAWKADSSPVKAGVETTTPSKQSNNKYAASSYLSLTPEQWKSHRSYSCQVTHEGSTVEKTVAPTECS
notes: IgG1, lambda; specificity column: g/d constant
B4: VG9B392 (antibody, human IgG1, lambda, V domains shown)
VH: QVQLVQSGAEVKRPGASAKVSCKTSGYTFTGYYIHWVRQAPGQGLEWMGWINPNSGYTNSAQKFQGRVSMTRDTSISTVYMELSRLRSDDTAVYYCAREDDAFDIWGQGTLVTVSS
VL: SSELTQDPAVSVALGQTVRITCQGDSLRSYYARWYQQKPGQAPVLVIYGKNNRPSGIPDRFSGSSSGDTASLTITGALAEDEADYYCNSRDNSGNHVVFGGGTKVTVLG
notes: as for B3
B5: VG9B429 (antibody, human IgG1, kappa)
heavy: not shown
light: DIQMTQSPSSVSASVGDRVTITCRASQGINSWLAWYQQKPGNAPKLLIYAASSLQSGVPSRFSGIGSGTDFIFTISSLQPEDFASYYCQQANSFPWTFGQGTRLEIKRTVAAPSVFIFPPSDEQLKSGTASVVCLLNNFYPREAKVQWKVDNALQSGNSQESVTEQDSKDSTYSLSSTLTLSKADYEKHKVYACEVTHQGLSSPVTKSFNRGEC
notes: IgG1, kappa
B6: VG9B430 (antibody, human IgG1, kappa, V domains shown)
VH: EVQLLESGGGLVKPGGSLRLSCSASGFTFSSYDMNWVRQAPGKGLEWVSSISSSSSYIYYADSVKGRFTISRDNAKNSLYLQMNSLRAEDTAVYHCARDVGVTTDYYYYGMDVWGQGTMVTVSS
VL: EIVLTQSPGTLSLSPGDRATLSCRASQSVASSYLAWYQQKPGQSPRLLIYGASSRATGIPDRFSGSGSGTDFTLTISRLEPEDFAVYYCQQYGSSPPYTFGQGTKLEIKR
notes: IgG1, kappa; also called antibody #19
B7: VG9B73 (antibody, human IgG1, kappa, V domains shown)
VH: EVQLVQSGGGLVKPGGSLRLSCAASGFTFSNYDMNWVRQAPGKGLEWVSSISSSSSYIYYADSVKGRFTISRDNARNSLFLQMSSLRAEDTAVYYCAREIGVTGTTYYQDYGMDVWGQGTTVTVSS
VL: B6 VL with L4M, D17E, V29F, A30S, S32N, S44A, V86L, Y98F, L106V
notes: IgG1, kappa; also called antibody #22
B8: VG9B98 (antibody, human IgG1, kappa, V domains shown)
VH: EVQLVQSGGDLVKSGGSLRLSCAASGFTFSSYSMYWVRQAPGKGLEWVSSIGSSSTYIFYADSVKGRFTISRDNAMTSLYLQMNRLGAEDSAVYYCARDGELGPFEYWGQGTLVTVSS
VL: EIVLTQSPGTLSLSPGERATLSCRASQSVSTSYLAWFQQKPGQAPRLLIFGTSSRATGIPDRFSGSGSGTDFTLTISRLEPEDFAVYHCLQYGRSPLTFGGGTKVDIKR
notes: IgG1, kappa; also called antibody #21
B9: VG9B419 (antibody, human IgG1, kappa)
heavy: not shown
light: EIVLTQSPGTLSLSPGDRATLSCRASQSVASSYLAWYQQKPGQSPRLLIYGASSRATGIPDRFSGSGSGTDFTLTISRLEPEDFAVYYCQQYGSSPPYTFGQGTKVEIKRTVAAPSVFIFPPSDEQLKSGTASVVCLLNNFYPREAKVQWKVDNALQSGNSQESVTEQDSKDSTYSLSSTLTLSKADYEKHKVYACEVTHQGLSSPVTKSFNRGEC
notes: IgG1, kappa; also called antibody #29
B10: VG9B418 (antibody, human IgG1, kappa)
heavy: not shown
light: B9 light with V106L
notes: IgG1, kappa; also called antibody #32
B11: VG9B413 (antibody, human IgG1, kappa)
heavy: not shown
light: B9 light with L4M
notes: IgG1, kappa; also called antibody #37
B12: VG9B417 (antibody, human IgG1, kappa)
heavy: not shown
light: B5 light with Q3V, R103K, L104V
notes: IgG1, kappa; also called antibody #27
B13: VG9B421 (antibody, human IgG1, kappa)
heavy: not shown
light: B5 light
notes: IgG1, kappa; also called antibody #34
B14: VG9B428 (antibody, human IgG1, kappa)
heavy: not shown
light: B5 light with D1E, Q3V, R103K, L104V
notes: IgG1, kappa; also called antibody #18
B15: VG9B384 (antibody, human IgG1, lambda, V domains shown)
VH: QVQLQESGPALVKPTQTLTLTCTFSGFSLSSSGMCVSWIRQPPGKALEWLTLIDWFDDKYYSTSLKTRLTISKDTSKNQVVLTMTNMDPVDTATYYCARIRGTGAYYYGLDVWGQGTMVTVSS
VL: SYELMQPPSVSVSPGQTASITCSGNELGDKYASWYQQQPGQSPVLVIYQDNKRPSGIPERFSGSNSGNTATLTISGTQAMDEADYYCQAWDSSKVVFGGGTKLTVLG
notes: IgG1, lambda; also called antibody #36
B16: VG9B472 (antibody, human IgG1, kappa, V domains shown)
VH: QVQLVESGGGLVKPGGSLRLSCAASGFTFSHYDMNWVRQAPGKGLEWVSSISSSSSYIFYADSVKGRFTISRDNAKNSLLLQMNSLRAEDTAVYHCARDRGVGDTSDYYSFGLDVWGQGTTVTVSS
VL: EIVLTQSPSSLSASVGDRVTITCRASQGIATYLAWYQQKPGKVPNLLIYAASTLQSGVPSRFSGSGSGTDFTLTISSLQPEDVATYYCQKYNSAPPWTFGQGTKVEIKR
notes: IgG1, kappa; also called antibody #33
B17: VG9B88 (antibody, human IgG1, kappa, V domains shown)
VH: EVQLVESGGGLVKPGGSLRLSCAVSGFTFSSYTMNWVRQAPGKGLEWVSSISTSSSYIDYADSVKGRFTISRDNAKKSLYLQMNSLRAEDTAVYYCARDGDMVAPIKGSFDYWGQGTLVTVSS
VL: EIVLTQSPLSLPVTPGEPASISCRSSQSLLNSDDGNTYLDWYLQKPGQSPQLLIYTLSYRASGVPDRFSGSGSGTDFTLKISRVEAEDVGVYYCMQRIEFPITFGQGTRLEIKR
notes: IgG1, kappa; also called antibody #35
B18: VG9B143 (antibody, human IgG1, lambda, V domains shown)
VH: EVQLVESGGGLVQPGGSLRLSCAASGFTFSTYGMNWVRQAPGKGLEWISYISTSSYTIYYSDSVKGRFTVSRDNAKNSLYLQMNSLRDEDTAVYYCAREGDWWYFDLWGRGTTVTVSS
VL: QSALTQPASVSGSPGQSITISCTGTSSDVGGYNYVSWYQQHPGKAPKLMIYEVSNRPSGVSYRFSGSKSGNTASLTISGLQAEDEADYYCSSYTSSSTLVFGGGTKLTVLG
notes: IgG1, lambda; also called antibody #31
B19: VG9B133 (antibody, human IgG1, kappa, V domains shown)
VH: EVQLVESGGGLVKPGGSLRLSCAAAGFTFSNYDMNWVRQVPGKGLEWVSSISSSSSYIYYADSVKGRFTISRDNAKNSLYLQMNTLRAEDTAVYYCARDLGITGTTMDYYYGMDVWGQGTMVTVSS
VL: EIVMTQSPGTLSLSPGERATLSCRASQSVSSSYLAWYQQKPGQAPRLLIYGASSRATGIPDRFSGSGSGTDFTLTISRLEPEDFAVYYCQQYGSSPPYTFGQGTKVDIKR
notes: IgG1, kappa; also called antibody #23
B20: VG9B58 (antibody, human IgG1, kappa, V domains shown)
VH: QVQLQESGPGLVKPSETLSLTCTVSGGSIKSSYWTWIRQPPGKGLEWIGYMFYLGSTNYNPSLKSRVTMSIDTSRNQFSLKLSSVTAADTAVYYCSRERPVLDAFDIWGQGTMVTVSS
VL: DIQMTQSPSAMSASVGDRVTITCRASQDITNYLAWFQQKPGKVPKRLIYAASSLQGGVPSRFSGSGSGTEFTLTISSLQPEDFSTYYCLQHDTYPYTFGQGTKVDIKR
notes: IgG1, kappa; also called antibody #28

Each binder was assayed against T1, γδ T cell receptor on human γδ T cells (human) (assay: flow cytometry DRC binding 37 C, human γδ T cells).
T1 construct: whole, on cells; Target is the γδ TCR on a mixed population of human γδ T cells; also called AG000003021 (γδ T cells)
Description: (§1) Binding of antibodies to human γδ T cells or SKW cell lines expressing Vγ9/Vδ2, Vγ9/Vδ2 or Vγ5/Vδ2 was carried out by flow cytometry. Briefly, the cells were centrifuged at 300×g for 5 minutes and the pellet was resuspended in 34 ml fresh media (in RPMI+10% FBS). 50 μL of the cells were then plated (44K cells/well) into assay plates. Samples were incubated for one hour at 37° C. in tissue culture (TC) incubator followed by wash steps by adding 100 μl FACS staining buffer. Secondary detention antibodies (A647 conjugated anti-human IgG Fc specific antibody (2 μg/mL) along with AF488 anti mouse CD3, clone OKT3 at 1 ug/mL) were added at 50 μL/well to appropriate wells according to the plate map. After incubating for 60 minutes at 37° C. in the TC incubator, cells were again washed as described above. This is followed by resuspension in 20 μL/well running buffer containing 1:1000 dilution of Sytox blue dead cell stain and the plates were run on iQue Screener.
(§2) Gating and data analysis: Human anti-human Vγ9 antibody (VG9B2 mAb at 10 nM) was used to mark the gating of positive population. All cells were first gated for singlets on SCS-A vs. SCS-H dot plot, live/dead followed by CD3 positive population, and this subset of CD3 positive population was gated for Vγ9 positive binding using positive control mAb. Cells were also assessed for cell binding of control mAbs by RL1 (A647) Geomeans from the live cell population. Advanced metrics were used and normalization metrics were chosen to calculate fold over background wells containing secondary antibody alone (designated as ‘background’ within ForeCyt settings).

Max. Activity [fold over background]	Binder
1020	B1
772	B2
1420	B3
1250	B4

What follows are binders tested against γδ T cell receptor on human γδ T cells (AG000003021) (human) (assay: flow cytometry, DRC binding at 37°C on human γδ T cells).
Description: as §1, §2

Max. Activity [fold over background]	Binder
3640	B5

These binders were tested against T2, γδ T cell receptor on human γδ T cells (human) (assay: flow cytometry, dose-response binding at 37 C on human γδ T cells).
T2 construct: also called AG000003021 (γδ T cells)
Description: as §1, §2

Max. Activity [fold over background]	Binder
2970	B6
2840	B7
2880	B8
2690	B9
2630	B10
2470	B11
2700	B12
2610	B13
2980	B14
2550	B15
2620	B16
2560	B17
2630	B18
2840	B19
2690	B20
